Results taken from the Human Domainome abundance scans (Beltran et al. 2025).
± gives the uncertainty stated by the source.

B1: Chromodomain-helicase-DNA-binding protein 4, residues 444 to 496; numbered along this chain, Q14839 (parent)
chain: EDDHHMEFCRVCKDGGELLCCDTCPSSYHIHCLNPPLPEIPNGEWLCPRCTCP

Variants of: B1
Experiment: abundance fitness (aPCA) (normalised: wild type 0, dead -1); higher = more abundant; growth selection in yeast, the domain comes from the species named
Conditions: Homo sapiens

| Variant | abundance fitness |
| --- | --- |
| C20R | 0.13 ± 0.048 |
| C20S | 0.093 ± 0.047 |
| C20V | -0.035 ± 0.045 |
| C20W | 0.069 ± 0.056 |
| C20Y | 0.066 ± 0.049 |
| C21A | -0.71 ± 0.086 |
| C21D | -0.875 ± 0.086 |
| C21E | -0.239 ± 0.1 |
| C21F | -1.02 ± 0.12 |
| C21G | -0.722 ± 0.054 |
| C21H | -0.745 ± 0.047 |
| C21I | -0.853 ± 0.066 |
| C21K | -0.795 ± 0.059 |
| C21L | -1.07 ± 0.05 |
| C21M | -0.955 ± 0.067 |
| C21N | -0.787 ± 0.07 |
| C21P | -0.829 ± 0.048 |
| C21Q | -0.76 ± 0.09 |
| C21R | -0.762 ± 0.052 |
| C21S | -0.994 ± 0.063 |
| C21T | -0.902 ± 0.079 |
| C21V | -1.05 ± 0.088 |
| C21W | -1.12 ± 0.1 |
| C21Y | -0.871 ± 0.066 |

| Variant | abundance fitness |
| --- | --- |
| D22A | 0.032 ± 0.051 |
| D22E | -0.055 ± 0.093 |
| D22F | 0.005 ± 0.057 |
| D22G | -0.011 ± 0.05 |
| D22H | -0.02 ± 0.052 |
| D22I | -0.399 ± 0.077 |
| D22K | 0.129 ± 0.053 |
| D22L | -0.067 ± 0.04 |
| D22M | -0.26 ± 0.072 |
| D22N | -0.085 ± 0.065 |
| D22P | -0.095 ± 0.045 |
| D22Q | -0.067 ± 0.072 |
| D22R | -0.058 ± 0.059 |
| D22T | 0.074 ± 0.047 |
| D22V | -0.159 ± 0.046 |
| D22W | -0.254 ± 0.08 |
| D22Y | -0.112 ± 0.066 |
| T23A | -0.119 ± 0.074 |
| T23C | -0.074 ± 0.088 |
| T23D | -0.305 ± 0.11 |
| T23E | 0.047 ± 0.083 |
| T23F | -0.221 ± 0.077 |
| T23H | -0.107 ± 0.076 |
| T23I | -0.042 ± 0.042 |

| Variant | abundance fitness |
| --- | --- |
| T23K | -0.031 ± 0.065 |
| T23L | -0.195 ± 0.053 |
| T23M | -0.077 ± 0.067 |
| T23N | 0.093 ± 0.067 |
| T23P | -0.738 ± 0.053 |
| T23Q | -0.07 ± 0.066 |
| T23R | 0.038 ± 0.063 |
| T23S | -0.044 ± 0.049 |
| T23V | -0.075 ± 0.072 |
| T23W | -0.2 ± 0.044 |
| T23Y | -0.084 ± 0.058 |
| C24A | -0.739 ± 0.05 |
| C24E | -1.09 ± 0.16 |
| C24F | -1.01 ± 0.12 |
| C24G | -0.894 ± 0.073 |
| C24H | -0.909 ± 0.097 |
| C24I | -0.706 ± 0.061 |
| C24K | -0.702 ± 0.048 |
| C24L | -0.816 ± 0.047 |
| C24M | -0.944 ± 0.058 |
| C24N | -0.881 ± 0.11 |
| C24P | -0.819 ± 0.064 |
| C24Q | -0.907 ± 0.078 |
| C24R | -0.629 ± 0.061 |

| Variant | abundance fitness |
| --- | --- |
| C24S | -0.788 ± 0.064 |
| C24T | -0.862 ± 0.079 |
| C24V | -0.617 ± 0.054 |
| C24W | -0.905 ± 0.11 |
| C24Y | -0.696 ± 0.1 |
| P25A | -0.124 ± 0.079 |
| P25C | -0.087 ± 0.051 |
| P25D | -0.172 ± 0.089 |
| P25E | -0.28 ± 0.15 |
| P25F | -0.167 ± 0.077 |
| P25G | -0.106 ± 0.072 |
| P25H | -0.024 ± 0.045 |
| P25I | -0.15 ± 0.051 |
| P25K | -0.078 ± 0.055 |
| P25L | -0.163 ± 0.044 |
| P25M | -0.167 ± 0.054 |
| P25N | -0.303 ± 0.072 |
| P25Q | -0.209 ± 0.077 |
| P25R | 0.032 ± 0.058 |
| P25S | -0.1 ± 0.056 |
| P25V | -0.18 ± 0.048 |
| P25W | -0.061 ± 0.087 |
| S26A | 0.104 ± 0.066 |
| S26C | -0.05 ± 0.045 |

| Variant | abundance fitness |
| --- | --- |
| S26E | 0.015 ± 0.052 |
| S26F | -0.039 ± 0.06 |
| S26G | 0.029 ± 0.059 |
| S26H | 0.021 ± 0.07 |
| S26K | -0.324 ± 0.049 |
| S26L | -0.088 ± 0.048 |
| S26M | 0.132 ± 0.052 |
| S26N | -0.073 ± 0.08 |
| S26P | -0.625 ± 0.067 |
| S26Q | 0.08 ± 0.072 |
| S26R | 0.003 ± 0.042 |
| S26V | -0.132 ± 0.063 |
| S26W | -0.11 ± 0.068 |
| S26Y | -0.103 ± 0.071 |
| S27A | 0.067 ± 0.062 |
| S27C | -0.018 ± 0.075 |
| S27D | -0.705 ± 0.12 |
| S27E | -0.472 ± 0.12 |
| S27F | -0.177 ± 0.076 |
| S27G | -0.22 ± 0.057 |
| S27H | -0.068 ± 0.059 |
| S27I | -0.394 ± 0.091 |
| S27K | -0.082 ± 0.073 |
| S27M | -0.14 ± 0.076 |

| Variant | abundance fitness |
| --- | --- |
| S27N | -0.026 ± 0.07 |
| S27P | -0.572 ± 0.075 |
| S27Q | -0.064 ± 0.076 |
| S27R | 0.016 ± 0.052 |
| S27T | -0.044 ± 0.057 |
| S27V | -0.057 ± 0.049 |
| S27W | -0.198 ± 0.067 |
| S27Y | 0.029 ± 0.059 |
| Y28A | -0.574 ± 0.079 |
| Y28C | -0.639 ± 0.099 |
| Y28E | -0.64 ± 0.082 |
| Y28F | 0.015 ± 0.042 |
| Y28G | -0.605 ± 0.074 |
| Y28H | -0.54 ± 0.055 |
| Y28K | -0.833 ± 0.12 |
| Y28L | -0.712 ± 0.058 |
| Y28M | -0.656 ± 0.08 |
| Y28N | -0.528 ± 0.045 |
| Y28P | -0.667 ± 0.062 |
| Y28Q | -0.657 ± 0.073 |
| Y28S | -0.566 ± 0.057 |
| Y28T | -0.531 ± 0.069 |
| Y28V | -0.471 ± 0.076 |
| Y28W | -0.259 ± 0.053 |

| Variant | abundance fitness |
| --- | --- |
| H29A | -0.748 ± 0.056 |
| H29C | -0.317 ± 0.063 |
| H29D | -0.811 ± 0.079 |
| H29E | -0.804 ± 0.11 |
| H29F | -0.918 ± 0.11 |
| H29I | -0.822 ± 0.09 |
| H29L | -0.983 ± 0.066 |
| H29M | -0.998 ± 0.097 |
| H29N | -0.556 ± 0.12 |
| H29P | -0.814 ± 0.072 |
| H29Q | -0.833 ± 0.11 |
| H29R | -0.97 ± 0.059 |
| H29S | -0.728 ± 0.054 |
| H29T | -0.921 ± 0.048 |
| H29V | -1.06 ± 0.063 |
| H29W | -1.1 ± 0.1 |
| H29Y | -0.787 ± 0.072 |
| I30A | -0.003 ± 0.056 |
| I30C | -0.108 ± 0.076 |
| I30D | -0.473 ± 0.1 |
| I30E | -0.072 ± 0.07 |
| I30F | -0.037 ± 0.067 |
| I30G | -0.115 ± 0.058 |
